Target: T1, CypA (Homo sapiens, UniProt P62937)
T1 construct: CypA was purified as previously described; made in house; host or cells: E. coli BL21 (DE3)
Experiment: NMR titration of 15N-CypA, binding isotherms
Details: chemical shift changes, 25° C.
Procedure: NMR sample preparation, spectroscopy, and data analysis. All NMR spectra were collected at 25° C. on a Varian 600-, 720- , 800-, or 900-MHz spectrometer in 50 mM NaPO4, pH 6.5, 150 mM NaCl, and 50 mM imidazole supplemented with 7% D2O. There were only modest changes to the resonance positions with imidazole present (data not shown), yet imidazole did increase the lifetime of each sample slightly and, thus, was maintained in all samples. Samples utilized for assignment purposes contained 0.5-1 mM protein, while all samples utilized for titration purposes contained 0.5 mM protein with the indicated final concentration of the titrant. All spectra were processed using NMRPipe software65 and analyzed using CCPNmr software.66 Unless otherwise noted, all pulse sequences were obtained from standard Varian Biopack libraries. Transverse relaxation optimized spectroscopy (i.e., TROSY-based) HSQC experiments were used only when noted.
NMR titration experiments were first conducted using 15N-CypA with unlabeled CD147, and chemical shift changes were only observed for extracellular recombinant CD147 constructs that included the membrane-proximal region of CD147 residues 206-214. […] However, both extracellular cyclophilin ligands of CD147, CypA and CypB, are known to readily traverse the membrane. […]

T1 sequence (P62937 whole entry): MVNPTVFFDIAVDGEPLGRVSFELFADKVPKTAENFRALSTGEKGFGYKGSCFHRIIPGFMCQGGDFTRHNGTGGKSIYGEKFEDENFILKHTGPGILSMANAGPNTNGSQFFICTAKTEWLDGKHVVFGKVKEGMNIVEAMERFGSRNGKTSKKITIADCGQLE

Kd: > 1 mM
B1: CD147: extracellular recombinant CD147 constructs that include membrane-proximal residues 206-214 (protein, UniProt P35613 138-323, looked up)
extracellular domain: EPGTVFTTVEDLGSKILLTCSLNDSATEVTGHRWLKGGVVLKEDALPGQKTEFKVDSDDQWGEYSCVFLPEPMGTANIQLHGPPRVKAVKSSEHINEGETAMLVCKSESVPPVTDWAWYKITDSEDKALMNGSESRFFVSSSQGRSELHIENLNMEADPGQYRCNGTSSKGSDQAIITLRVRSHLA
modifications: extracellular domain
